Assay results reported in the supplement of paper PMC10126150.
± gives the standard deviation of the averaged measurements.

system: ATP; experiment: switch fluorescence ratio, 500 uM ATP over buffer (Cy3 cluster intensity, sum of 5 cycles each) (fold (ratio)); higher = stronger signal-on switching upon ATP binding; sequences stand for … in TCGTCGGCAGCGTCAGATGTGTATAAGAGACAGTTTTTTTTTTTTTTTTTTTTTTTTT…TC; conditions: aptamer strand: ATP DNA aptamer (quencher-CACCTGGGGGAGTATTGCGGAGGAAGG + anchor), 100 nM annealed; ATP concentration: 500 uM
How it was run: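 For every switch-domain sequence, the fluorescence ratio is the mean of per-cluster values, each being summed target-cycle Cy3 intensity over summed buffer-cycle Cy3 intensity. Clusters outside 100-1000 RFU were excluded. On a modified Illumina MiSeq flow-cell, the Cy3-labelled switching-strand clusters were annealed to 100 nM quencher-labelled ATP aptamer, imaged in selection buffer and then after 15 min with 500 uM ATP at 22 °C. Five such cycles were run, with NaOH stripping and re-annealing between them.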
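Further: ATP exposure 15 min at 22 °C before imaging.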

| Sequence | switch fluorescence ratio |
| --- | --- |
| TAACTGTAGG | 1.02 ± 0.033 |
| TTGTGCTTAA | 0.989 ± 0.052 |
| ATATCGGTAG | 0.999 ± 0.014 |
| TGGGGCAGGG | 1.44 ± 0.62 |
| TCGAGTATCG | 1.02 ± 0.044 |
| AGAGGGGAGG | 0.988 ± 0.0054 |
| ATGTCCTAGC | 1.03 ± 0.0038 |
| ATGATAGTAC | 1.04 ± 0.017 |
| TTGGAGAGGG | 1.06 ± 0.058 |
| GGGGTTTGTC | 0.95 ± 0.049 |
| TTGAGTTTGT | 0.977 ± 0.015 |
| TTATTCGTTG | 0.99 ± 0.025 |
| ATGTGTGTTG | 1.04 ± 0.046 |
| AGGGAAGTTA | 1.01 ± 0.014 |
| TCGTTATTCG | 0.979 ± 0.021 |
| ATCGGGGATT | 1.01 ± 0.014 |
| AATATGTGTA | 0.987 ± 0.018 |
| GATGCCGGGA | 1.02 ± 0.038 |
| GGTACGTATG | 0.986 ± 0.036 |
| TAAATTGGGG | 0.983 ± 0.024 |
| CTTAAAATGG | 1.03 ± 0.038 |
| GGGATTTGGC | 0.995 ± 0.036 |
| CACCGCGTCG | 1.21 ± 0.017 |
| GAATCAATGG | 1.03 ± 0.02 |
| CTGTGATACT | 2.93 ± 0.22 |

| Sequence | switch fluorescence ratio |
| --- | --- |
| AAAAAAAGCA | 1.04 ± 0.05 |
| ATTTGGGTGA | 1.03 ± 0.047 |
| ATGGTGTTTT | 0.9803 ± 0.008 |
| GAGGAGGGGG | 0.986 ± 0.032 |
| ACCATAGGCT | 1.01 ± 0.055 |
| AATACAGAGA | 1.01 ± 0.055 |
| TTTATTTTTC | 1.04 ± 0.046 |
| AGGGGGGGAG | 1.01 ± 0.053 |
| CGGATGTTGG | 1.02 ± 0.12 |
| CAGTCGAGTT | 1.003 ± 0.0076 |
| TTTGTTTGGT | 0.985 ± 0.036 |
| TTATATATAA | 1.01 ± 0.027 |
| AGAGTGGTA | 0.9491 ± 0.0052 |
| ACTTGTCATC | 0.992 ± 0.043 |
| CATTTCGTTT | 0.957 ± 0.014 |
| AAAAGTGAAA | 1.14 ± 0.2 |
| GGGGGTGGAC | 1.01 ± 0.052 |
| AGGTGGTAGT | 1 ± 0.012 |
| TTCTTGGACA | 0.993 ± 0.016 |
| TTAATTCGCT | 1.04 ± 0.098 |
| AATTGTGGAG | 0.966 ± 0.023 |
| AGATAAACG | 0.984 ± 0.056 |
| AGCACTTTTC | 1.0192 ± 0.00082 |
| GGAGAAGAGT | 1.04 ± 0.015 |
| CATATCTAGG | 0.997 ± 0.025 |

| Sequence | switch fluorescence ratio |
| --- | --- |
| ATGGGAATAC | 2.59 ± 0.28 |
| TGAAAAACAC | 1.12 ± 0.17 |
| ATATGTGGCG | 0.932 ± 0.011 |
| ATATTGGTGG | 0.991 ± 0.042 |
| TTTTTTAAAC | 0.996 ± 0.013 |
| GGTTATGGGA | 0.996 ± 0.032 |
| ATATTGAGGC | 1.01 ± 0.038 |
| GTTTTATTTT | 1 ± 0.047 |
| GGGATATCTG | 0.98847 ± 0.00072 |
| GGAATGCGCA | 1.028 ± 0.0068 |
| TTTCGGGGAA | 1.06 ± 0.1 |
| TTCAATCATG | 0.988 ± 0.011 |
| CCTTGGGGAT | 1.11 ± 0.12 |
| TTGAGAGCGG | 1.01 ± 0.047 |
| ATAACAAGAC | 1.32 ± 0.067 |
| GCTTGTATTT | 1 ± 0.014 |
| GGCCACAGCA | 1.07 ± 0.016 |
| ATTCGTATTT | 0.987 ± 0.029 |
| ATTTTTTAGT | 0.983 ± 0.013 |
| CCAGGGCGAA | 1.064 ± 0.0056 |
| CGAGTGAAAT | 1 ± 0.018 |
| AGAGAGTTTA | 1.04 ± 0.021 |
| CAGTCATATT | 1.02 ± 0.034 |
| CAATATGTTT | 0.991 ± 0.051 |
| ATTTTAGGGA | 0.98918 ± 0.00041 |

| Sequence | switch fluorescence ratio |
| --- | --- |
| TGCGAAATTT | 0.965 ± 0.013 |
| ATGTAATTAA | 0.964 ± 0.046 |
| GTCGGCATGG | 1.07 ± 0.059 |
| CGATATATTG | 0.988 ± 0.013 |
| TCCAAGGGTG | 1.46 ± 0.15 |
| TGCACATAGG | 1.06 ± 0.016 |
| TGGGTCATCT | 1.02 ± 0.065 |
| GAATGGCTAG | 1.0109 ± 0.00049 |
| GGTTTTGTTC | 1.09 ± 0.11 |
| AGCATGTGGC | 0.991 ± 0.016 |
| TATGAACCGT | 0.984 ± 0.052 |
| ACTGGATGCT | 0.995 ± 0.12 |
| GCGGTCAAAC | 1.06 ± 0.036 |
| GAGAGGGAGC | 0.91 ± 0.076 |
| ACATATTACT | 1.13 ± 0.0066 |
| ATGCCAATAA | 1.01 ± 0.03 |
| ACTTTTTTTT | 1.01 ± 0.034 |
| ATAAGGGGGT | 0.973 ± 0.016 |
| CAAGTGAGAA | 1.02 ± 0.049 |
| CAGCAGGGGC | 1.11 ± 0.024 |
| CGATTTTGAT | 1.01 ± 0.013 |
| TCAATGTGGT | 1.016 ± 0.008 |
| CATCAGGCAC | 1.2 ± 0.023 |
| AACGGGGGA | 0.9916 ± 0.0024 |
| GGTAGTTTCA | 0.9966 ± 0.00047 |
